Experimental data as given in US20020103147A1.

Biological target: transgene murine adenylylcyclase isoform VI (ACVI) with HA-tag, from the truncated construct of Example 5-2 (murine) (UniProt Q01341)
Experiment: cell-based or functional assay

Sequence of transgene murine adenylylcyclase isoform VI (ACVI) with HA-tag, from the truncated construct of Example 5-2 (murine) (Q01341 whole entry, the tested form may be a part, canonical isoform): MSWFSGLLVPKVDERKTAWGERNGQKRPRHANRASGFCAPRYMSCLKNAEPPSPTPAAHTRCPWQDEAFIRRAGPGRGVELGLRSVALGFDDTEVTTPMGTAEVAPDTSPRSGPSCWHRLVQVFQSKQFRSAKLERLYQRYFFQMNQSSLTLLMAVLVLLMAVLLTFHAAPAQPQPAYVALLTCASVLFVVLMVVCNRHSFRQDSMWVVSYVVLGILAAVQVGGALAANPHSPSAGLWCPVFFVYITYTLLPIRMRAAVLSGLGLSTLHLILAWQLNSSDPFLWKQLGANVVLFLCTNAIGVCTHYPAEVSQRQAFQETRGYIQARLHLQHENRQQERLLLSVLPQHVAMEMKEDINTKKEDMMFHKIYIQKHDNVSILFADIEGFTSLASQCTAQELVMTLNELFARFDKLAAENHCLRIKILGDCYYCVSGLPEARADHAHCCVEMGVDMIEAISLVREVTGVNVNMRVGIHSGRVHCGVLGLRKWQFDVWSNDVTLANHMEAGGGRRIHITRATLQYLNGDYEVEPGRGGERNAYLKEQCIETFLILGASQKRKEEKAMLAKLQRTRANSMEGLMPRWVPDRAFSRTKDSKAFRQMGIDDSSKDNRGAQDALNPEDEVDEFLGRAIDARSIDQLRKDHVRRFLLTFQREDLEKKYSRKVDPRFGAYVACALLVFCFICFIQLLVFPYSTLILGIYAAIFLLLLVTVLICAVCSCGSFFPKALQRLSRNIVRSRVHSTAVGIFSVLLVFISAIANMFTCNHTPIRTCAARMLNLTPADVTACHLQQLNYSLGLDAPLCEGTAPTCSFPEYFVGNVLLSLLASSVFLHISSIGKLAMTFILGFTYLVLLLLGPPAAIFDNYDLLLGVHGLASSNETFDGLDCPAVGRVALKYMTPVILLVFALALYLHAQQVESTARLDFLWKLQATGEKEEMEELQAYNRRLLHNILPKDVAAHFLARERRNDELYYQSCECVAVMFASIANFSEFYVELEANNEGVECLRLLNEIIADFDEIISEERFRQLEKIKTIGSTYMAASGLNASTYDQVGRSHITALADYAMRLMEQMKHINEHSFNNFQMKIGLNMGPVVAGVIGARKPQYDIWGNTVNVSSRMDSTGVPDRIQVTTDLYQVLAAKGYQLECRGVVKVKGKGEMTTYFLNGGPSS

With “Gs (stimulatory GTP-binding protein) of neonatal rat cardiac myocytes (from UniProt P63095 2-394)” the Net GTP gamma S-stimulated forskolin binding was 447 cpm.
